These results are taken from paper PMC9241078.

What all share (assay): potentiometry
The target in one data set is Glu117. The following applies: 298 K, 0.1 M KCl, none (peptide dissolved in 4 x 10^-3 M HCl).
The target of another data set is Cterm120. To be noted: 298 K; 0.1 M KCl; none (peptide dissolved in 4 x 10^-3 M HCl); metal-free peptide. Ligand concentration is 0.5 mM in Methods, but the Table 3 footnote says 0.001 M.
The target in data set [1] is Glu132 (UniProt position 132, …--). To be noted: 298 K; 0.1 M KCl; none (peptide dissolved in 4 x 10^-3 M HCl); metal-free peptide. Ligand concentration is 0.5 mM in Methods, but the Table 3 footnote says 0.001 M.
Data set [2] deals with Cterm135 (UniProt position 135, AGEDAI-----). The following applies: 298 K; 0.1 M KCl; none (peptide dissolved in 4 x 10^-3 M HCl); metal-free peptide. Ligand concentration is 0.5 mM in Methods, but the Table 3 footnote says 0.001 M.
Where [3] appears, read: metal-free peptide. Ligand concentration is 0.5 mM in Methods, but the Table 3 footnote says 0.001 M.

B1: BigR4 alpha5 domain peptide mutant H106A (L3) (Mycobacterium smegmatis; H106A) (peptide)
chain: DHHLAAIVVDAIAHASEDRR
What is called pKa is the negative logarithm of the acid dissociation constant. A high value points to a weaker acid or stronger base. For B1, the pKa in the data set with Glu117 (setting [3]) is 5,91; in the data set with Cterm120, 2,97.

B2: BigR4 alpha5 metal-binding domain peptide (L1), HTH ArsR-type transcriptional regulator fragment 101-120 (Mycobacterium smegmatis) (peptide)
chain: DHHLAHIVVDAIAHASEDRR
Consider B2, for which the pKa in the data set with Glu117 (setting [3]) was 5.80; with Cterm120, 3.23.

B3: BigR4 alpha5 domain peptide mutant H102A (L2) (Mycobacterium smegmatis; H102A) (peptide)
chain: DAHLAHIVVDAIAHASEDRR
B3: the pKa was 5.61 in the data set with Glu117 (Ni(II)-bound, metal to ligand 1:1 (NiH4L to NiH3L step)); 6.10 in the data set with Glu117 (setting [3]); 3.35 in the data set with Cterm120.

B4: SmtB alpha5 metal-binding domain peptide (L4), HTH-type transcriptional repressor SmtB fragment 116-135 (Mycobacterium tuberculosis) (peptide)
chain: DHHLAHIVLDAVAHAGEDAI
Turning to B4, the pKa stood at 5.74 in data set [1] and 3.16 in data set [2].
